The target of assay [1] is T1, Nectin-4 Mutant 9 (L150S/S152A/Q234R/I236S) (Homo sapiens, UniProt Q96NY8, I236S/L150S/Q234R/S152A).
T1 construct: expressed in transfected cells; host or cells: HEK293T
T1 sequence (Q96NY8 32-510 L150S/S152A/Q234R/I236S): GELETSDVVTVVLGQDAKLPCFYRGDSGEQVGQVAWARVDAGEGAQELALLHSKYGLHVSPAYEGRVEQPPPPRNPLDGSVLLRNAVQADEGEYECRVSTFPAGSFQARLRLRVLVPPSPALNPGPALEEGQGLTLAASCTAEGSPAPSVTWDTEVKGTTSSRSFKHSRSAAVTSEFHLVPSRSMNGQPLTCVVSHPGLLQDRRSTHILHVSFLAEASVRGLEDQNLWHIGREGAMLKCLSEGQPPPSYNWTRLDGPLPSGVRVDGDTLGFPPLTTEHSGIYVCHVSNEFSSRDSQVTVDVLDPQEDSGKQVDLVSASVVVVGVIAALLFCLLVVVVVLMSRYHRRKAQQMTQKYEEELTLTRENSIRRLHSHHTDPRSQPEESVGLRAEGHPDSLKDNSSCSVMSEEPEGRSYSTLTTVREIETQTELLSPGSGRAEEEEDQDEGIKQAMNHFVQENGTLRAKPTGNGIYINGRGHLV
Briefly: Binding to cell surface expressed Nectin-4 point mutant. The following applies: HEK-293T. From the text:
(§1) Combined with the published structures of the Nectin-4 domains, Nectin-4 mutations at surface exposed amino acids residues were designed. Nectin-4 domain structure was modelled based on Protein Data Bank reference: 4FRW (domains V et C1). Human Nectin-4 used was NCBI Reference Sequence: NP_112178.2, mouse Nectin-4 used was NCBI Reference Sequence: AAL79833.1, cynomolgus Nectin-4 used was NCBI Reference Sequence: XP_005541277.1, rat Nectin-4 used was NCBI Reference Sequence: NP_001102546.1. The cells expressing the Nectin-4 mutants are then be used for testing anti-Nectin-4 antibodies for loss of binding to different Nectin-4 mutants to identify antibodies that bind to the same site on Nectin-4. […] FIGS. 12A and 12B show a molecular model of the human Nectin-4 protein, indicating the position of substituted residues in mutants 7 (12A) and in mutants 7bis (12B); these mutants are in the C1 domain identify two sites at the junction of domain C1 and V domain that are on opposing faces of the Nectin-4 protein.
(§2) Nectin-4 mutants were generated by PCR. The sequences amplified were run on agarose gel and purified using the Macherey Nagel PCR Clean-Up Gel Extraction kit. The purified PCR products generated for each mutant were then ligated into an expression vector, with the ClonTech InFusion system. The vectors containing the mutated sequences were prepared as Miniprep and sequenced. After sequencing, the vectors containing the mutated sequences were prepared as Midiprep using the Promega PureYield™ Plasmid Midiprep System. HEK293T cells were grown in DMEM medium (Invitrogen), transfected with vectors using Invitrogen's Lipofectamine 2000 and incubated at 37° C. in a CO2 incubator for 48 hours prior to testing for transgene expression. The targeted amino acid mutations are shown in Table 2 below, listing the residue present in wild-type Nectin-4/position of residue/residue present in mutant Nectin-4, with position reference being to the Nectin-4 protein with leader peptide shown in SEQ ID NO: 1.

For assay [2], the target named is T2, wild-type human Nectin-4 protein (huNectin4-his-BirA) (Homo sapiens, UniProt Q96NY8).
T2 sequence (Q96NY8 with tags, fused parts or gaps): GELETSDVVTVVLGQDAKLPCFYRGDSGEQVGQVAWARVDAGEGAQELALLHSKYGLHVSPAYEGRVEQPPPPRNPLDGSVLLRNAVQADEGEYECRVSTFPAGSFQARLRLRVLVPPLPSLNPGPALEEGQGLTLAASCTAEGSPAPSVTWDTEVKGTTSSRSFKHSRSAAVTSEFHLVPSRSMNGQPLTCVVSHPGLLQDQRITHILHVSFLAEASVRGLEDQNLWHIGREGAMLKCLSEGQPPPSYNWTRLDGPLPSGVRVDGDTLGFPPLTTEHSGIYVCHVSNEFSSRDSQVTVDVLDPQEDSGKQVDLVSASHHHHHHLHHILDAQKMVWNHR
Briefly: Affinity determination by SPR (Biacore T200). It counts as binding. The following applies: 25° C. As for the experimental part:
Antibodies were tested for binding affinity to the wild-type human Nectin-4 protein by SPR (Surface Plasmon Resonance) methods. Measurements were performed on a Biacore T200 apparatus (Biacore GE Healthcare) at 25° C. Sensorgrams were analyzed with Biacore T100 Evaluation software. A CMR Sensor Chip with immobilized Protein A at about 600 RU was used. Anti-Nectin-4 antibodies were captured onto the Protein-A chip (antibodies diluted to 1 μg/ml in HBS-EP+1× buffer and injected over 120s at 40 μL/min). Recombinant human monomeric huNectin4-his-BirA protein was injected at different concentrations in a range from 100 nM to 1.56 nM over captured antibodies (HuNectin4-His-BirA diluted in HBS-EP+1× in ½ dilutions, injected over 120s at 40 μl/min) and allowed to dissociate for 600s. The chip was regenerated with NaOh 10 mM 2× for 30s at 40 μl/min. The sensorgram sets were fitted using the 1:1 kinetic binding model or two state reaction model, as a function of the profile of the curves.
(In general: SPR reads the build-up and loss of mass on a sensor chip optically.)

In assay [3] the test system is Nectin-4 Mutant 5 (A158P/E160G/S243A/F244S). The experiment in a line: Binding to cell surface expressed Nectin-4 point mutant. The following applies: HEK-293T; results irrelevant, due to an absence of expression of said protein. On the set-up: species or system human.
Excerpt: as §1, §2

The test system of another assay is rat Nectin-4. The experiment in a line: Flow cytometry species cross-reactivity on CHO cells. It counts as binding. As for the experimental part:
Anti-Nectin-4 antibodies were tested by flow cytometry for binding to different CHO cell lines made to express respectively the mouse, cynomolgus and rat Nectin-4 protein (including an N-terminal V5 tag not shown in the sequences below).
In general terms: Flow cytometry measures light scatter and fluorescence of single cells or particles in a stream.

We go through three molecules from patent US20240325557A1, “TREATMENT OF CANCER” (INNATE PHARMA, priority 2020, published 2024).

Changes are numbered by the printed parent chain. Read-outs that look alike come from different tables or passages of the source.

rat Nectin-4, sequence (as listed by the source): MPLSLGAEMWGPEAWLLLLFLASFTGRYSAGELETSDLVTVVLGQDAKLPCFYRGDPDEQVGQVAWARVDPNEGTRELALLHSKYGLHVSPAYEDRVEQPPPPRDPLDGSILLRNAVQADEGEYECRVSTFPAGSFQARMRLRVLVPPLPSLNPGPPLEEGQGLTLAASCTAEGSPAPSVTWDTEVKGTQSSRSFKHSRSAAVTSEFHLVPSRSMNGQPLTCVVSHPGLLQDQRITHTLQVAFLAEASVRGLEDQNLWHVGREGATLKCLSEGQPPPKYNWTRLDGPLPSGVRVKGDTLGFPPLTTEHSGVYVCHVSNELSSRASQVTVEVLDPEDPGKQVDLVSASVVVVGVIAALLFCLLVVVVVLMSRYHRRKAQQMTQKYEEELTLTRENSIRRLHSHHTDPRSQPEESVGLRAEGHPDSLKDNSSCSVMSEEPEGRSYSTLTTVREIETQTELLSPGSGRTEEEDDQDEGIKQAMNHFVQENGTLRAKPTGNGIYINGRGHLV

B1: N41 (antibody, V domains shown)
VH: QVQLKQSGPGLVQPSQSLSITCTVSGFSLTNYGVHWVRQSPGKGLEWLGVIWSGGSTDYNAAFISRLSISKDTSKSQVFFKMNSLQADDTAIYYCARELIHAMDNWGQGTSVTVSS
VL: DIQMTQSPASLSVSVGETVTITCRASENIYSNLAWYQQKQGNSPQLLVFAATNLADGVPSRFSGSGSGTQYSLKINSLQSEDFGTYYCQHFWGTPTFGGGTKLEIK
As for B1, the “association with Nectin-4 Mutant 9” value in assay [1] is listed as “+”. In assay [2], this molecule displayed a ka of 580000 M⁻¹ s⁻¹ and a kd of 0.00087 s⁻¹. Besides, the “association with Nectin-4 Mutant 5” value in assay [3] is reported as “−”.

B2: 5E7 (antibody, V domains shown)
VH: QVQLQQPGAELVKPGASVKLSCKASGYIFTSYWMHWVKQRPGQGLEWIGEIDPSDSYTNYNQKFKGKATLTLDKSSSTTYMQLSSLTSEDSAVYYCVRGYGNYGDYWGQGTTLTVSS
VL: DVVMTQAAFSNPVTLGTSASISCRSSKSLLHSNGITYLYWYLQKPGQSPQLLIYQMSNLASGVPDRFSSSGSGTDFTLRISRVEAEDVGVYYCAQNLELPWTFGGGTKLEIK
As to B2, the “association with Nectin-4 Mutant 9” value in assay [1] is given as “+”. This molecule returned a ka in assay [2] of 620000 M⁻¹ s⁻¹. Moreover, in assay [2], the kd came to 0.003 s⁻¹. Moreover, the entries for the “binding to rat Nectin-4 expressing CHO cells” value (shortened to “binding”) with rat Nectin-4 and in the assay on rat Nectin-4 (listed as mAb6) were “showed binding to rat Nectin 4 expressing cells” and “bind to rat Nectin-4”, respectively. Besides, the “association with Nectin-4 Mutant 5” value in assay [3] is given as “−”.

B3: 10B12: anti-Nectin-4 antibody, VH SEQ ID NO: 24, VL SEQ ID NO: 25, binds junction of domain C1 and V (antibody, listed as Mus musculus, V domains shown)
VH: B2 VH with I28T, L72V, T79A
VL: B2 VL with V2I
Take B3: the “association with Nectin-4 Mutant 9” value in assay [1] is “+”. In assay [2], the ka turned out to be 860000 M⁻¹ s⁻¹ and the kd was 0.01 s⁻¹. Also, in the assay with rat Nectin-4, the “binding” value is recorded as “showed binding to rat Nectin 4 expressing cells”. Further, in the assay with rat Nectin-4 (listed as mAb7), the “binding” value was “bind to rat Nectin-4”. For the same molecule, the “association with Nectin-4 Mutant 5” value in assay [3] is on record as “−”.
